The assay deals with OTLD1-RFP (Arabidopsis). Description: FRET or BRET.

B1: LSH10-GFP (natural protein)
chain: MSSPRERGKSLMESSGSEPPVTPSRYESQKRRDWNTFGQYLKNQRPPVPMSHCSCNHVLDFLRYLDQFGKTKVHVPGCMFYGQPEPPAPCTCPLRQAWGSLDALIGRLRAAYEENGGPPETNPFASGAIRVYLREVRECQAKARGIPYKKKKKKKPTPEMGGGREDSSSSSSSFSFS
Take B1: the %AB-FRET (donor dequenching) worked out at 13%.

The values are drawn from doi:10.1101/2022.07.30.502139.
